# US20080233097A1, “Phosphorylation Site Of Mitogen-Activated Protein Kinases, Modified Proteins And Applications” (UNIVERSIDAD AUTONOMA DE MADRID, priority 2005, published 2008)
# T1: GRK2 (Bos taurus, UniProt P21146)
# T1 construct: made in house; host or cells: Sf9 cells (baculovirus)
# T1 sequence (P21146 1-689): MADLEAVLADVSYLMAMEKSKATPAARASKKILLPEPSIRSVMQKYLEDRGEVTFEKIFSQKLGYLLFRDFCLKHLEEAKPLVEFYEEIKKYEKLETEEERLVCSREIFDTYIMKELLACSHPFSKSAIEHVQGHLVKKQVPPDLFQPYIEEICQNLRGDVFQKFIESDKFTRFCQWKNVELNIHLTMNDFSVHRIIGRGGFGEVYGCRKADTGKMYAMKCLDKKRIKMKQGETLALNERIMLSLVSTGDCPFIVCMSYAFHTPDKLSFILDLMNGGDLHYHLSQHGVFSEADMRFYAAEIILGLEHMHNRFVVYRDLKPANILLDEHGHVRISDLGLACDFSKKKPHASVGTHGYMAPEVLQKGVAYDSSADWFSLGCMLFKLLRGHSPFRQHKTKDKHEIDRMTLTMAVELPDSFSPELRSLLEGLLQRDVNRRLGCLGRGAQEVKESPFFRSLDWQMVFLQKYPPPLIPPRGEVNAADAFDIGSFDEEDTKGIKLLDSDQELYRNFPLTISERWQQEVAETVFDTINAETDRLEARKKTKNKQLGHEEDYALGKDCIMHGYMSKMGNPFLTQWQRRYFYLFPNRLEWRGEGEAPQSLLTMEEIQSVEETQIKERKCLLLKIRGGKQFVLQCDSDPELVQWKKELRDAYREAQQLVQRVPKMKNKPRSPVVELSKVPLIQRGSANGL
# T2: GST-280-360p38 (last 80 amino acids of p38α fused to GST, from pDEST15)
# T2 chain: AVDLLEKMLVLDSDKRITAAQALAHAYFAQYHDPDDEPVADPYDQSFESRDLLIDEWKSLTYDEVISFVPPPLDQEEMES
# T3: GST-p38 (wild type p38α fused to GST, from pGEX2T-p38α)
# T3 chain: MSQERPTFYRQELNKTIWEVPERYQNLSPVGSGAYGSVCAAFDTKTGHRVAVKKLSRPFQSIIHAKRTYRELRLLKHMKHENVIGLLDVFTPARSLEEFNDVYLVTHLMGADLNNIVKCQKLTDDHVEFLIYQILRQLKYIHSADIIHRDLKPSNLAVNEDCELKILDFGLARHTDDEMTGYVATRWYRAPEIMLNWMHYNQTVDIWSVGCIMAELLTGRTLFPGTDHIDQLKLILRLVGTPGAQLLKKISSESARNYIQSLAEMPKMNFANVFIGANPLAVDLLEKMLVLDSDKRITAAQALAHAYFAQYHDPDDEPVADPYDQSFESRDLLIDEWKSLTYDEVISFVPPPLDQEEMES
# B1: p38T123A: p38α mutant form that cannot be phosphorylated by GRK2 (protein, UniProt P47811 2-360, looked up, variant T123A)
# Mitogen-activated protein …: SQERPTFYRQELNKTIWEVPERYQNLSPVGSGAYGSVCAAFDTKTGHRVAVKKLSRPFQSIIHAKRTYRELRLLKHMKHENVIGLLDVFTPARSLEEFNDVYLVTHLMGADLNNIVKCQKLADDHVQFLIYQILRGLKYIHSADIIHRDLKPSNLAVNEDCELKILDFGLARHTDDEMTGYVATRWYRAPEIMLNWMHYNQTVDIWSVGCIMAELLTGRTLFPGTDHIDQLKLILRLVGTPGAELLKKISSESARNYIQSLAQMPKMNFANVFIGANPLAVDLLEKMLVLDSDKRITAAQALAHAYFAQYHDPDDEPVADPYDQSFESRDLLIDEWKSLTYDEVISFVPPPLDQEEMES
# modifications: GST fusion in some forms
# notes: p38α mutant form that cannot be phosphorylated by GRK2
# B2: Recombinant GRK2 purified by the Baculovirus system (from infected Sf9 cells) (protein)
# chain: T1 sequence (P21146 1-689)
# How the values were obtained:
# p38 = biological target: T4, p38 (Mus musculus, UniProt P47811); test: effect of heparin on catalytic activity of p38; assay type: biochemical
# T4 construct: with whole p38α in the same conditions as described in section A; made in house; host or cells: E. coli
# From the text: Subsequently, the inventors decided to study the possible interactions between GRK2 and p38. The first experimental approach was the phosphorylation assays of both proteins. […] These experiments were completed with negative controls of GST phosphorylation by GRK2 and by inspecting the binding area between the GST portion and the ORF of p38.
# MKK6CAM = test: p38 phosphorylation by MKK6CAM in vitro; assay type: biochemical; settings: 150 nM fusion protein, 40 ng MKK6CAM
# Procedure: (§1) The reactions were carried out at 30° C. for 30 minutes and the proteins were separated in 8% SDS-PAGE gels. The amount of p38 in each point was visualized by Coomassie Blue staining. Then the radioactivity in each p38 isoform was determined. […] FIG. 11B: In these same assays, the ability of MKK6CAM-activated GST-p38WT, GST-p38T123A and GST-p38T123D to phosphorylate 2 μg of GST-ATF2 is evaluated. The representative autoradiography (^32P) of the total GST-ATF2 control (Coomassie Blue) is attached.
# As in the previous cases, the reactions were left to take place at 30° C. for 30 minutes and the proteins were resolved in 8% SDS-PAGE gels. With the purpose of assuring the inclusion of identical amounts of protein, they were visualized in the gel by Coomassie Blue staining. Subsequently, the radioactivity incorporated in each p38 isoform was determined.
# GST-MEF2A = test: phosphorylation of GST-MEF2A by p38; assay type: biochemical
# Procedure: FIG. 12A: In vitro phosphorylations are carried out with the fusion proteins indicated in the Figure, in the presence (+) or absence (−) of recombinant MKK6CAM(40 ng) and 2 μg of GST-MEF2A. The assay was left to take place for 30 minutes. The proteins were separated in 8% SDS-PAGE, stained with CBB and the incorporated radioactivity (^32P) was detected. Panels of a representative experiment of the three assays carried out independently are provided. FIG. 12B: The baseline activity of the three p38 fusion proteins in the absence of the MKK6CAM activator was evaluated in the previously described conditions. A representative autoradiography after a long exposure is shown.
# (§2) The ATF2 and MEF2A forms bound to GST were used to test the catalytic activity of GST-p38. In most cases, 2 μg of GST-ATF2 or GST-MEF2A, of own production, were used. The phosphorylation conditions are the same as set forth in the foregoing cases. Nevertheless, in other occasions, relevantly pointed out in the Figures, 0.2 μg of substrate were used and the phosphorylation reaction was allowed to take pace for 15 minutes only.
# GRK2 = biological target: T1, GRK2; test: phosphorylation of p38 mutants and truncated proteins by GRK2 in vitro; assay type: biochemical; settings: GST fusion proteins, 30 minutes at 30° C.
# Procedure: FIG. 6A: Proteins fused to GST (black rectangle in the protein schemes) were purified from bacteria transformed with the plasmids pGEX2T-p38α, pGEX4T-Mxi2 and pGEX4T-Mxi2Δ17: p38α, Mxi2 and Mxi2Δ17. The […] isoforms used as C-terminal truncated mutants for trying to limit the GRK2 phosphorylation site. […] Heparin (150 nM) was included as a specific GRK2 inhibitor. The reactions were stopped by adding SDS breaking buffer. The samples were resolved in 8% SDS-PAGE. For the purpose of assuring the inclusion of identical amounts of protein, they were first visualized in the gel by Coomassie Brilliant Blue (CBB) staining. Then the gel was dried and the radioactivity incorporated to the proteins (^32P) was detected. FIG. 6B: The truncated GST-280-360p38 protein, corresponding to the last 80 p38α amino acids, was generated by means of the Invitrogen Gateway system. Phosphorylation assays were carried out with Mxi2Δ17 as a p38 N-terminal, 280-360 p38 as C-terminal and with whole p38α in the same conditions as described in section A. The phosphorylation was detected by autoradiography (^32P) and controls of the amount of protein used in the assays were carried out concomitantly by Western blot with the anti-GST antibody. The presence of the GST-280-360p38 protein, which is not phosphorylated, is clearly observed. STD, mobility of standard molecular weight proteins.
# FIG. 9A: p38T123A and p38T123D proteins, fused to GST, were made by directed mutagenesis in the prokaryotic expression plasmids pGEX2T. The ability of the recombinant GST-p38T123A and GST-p38T123D proteins to be GRK2 substrates in comparison to the wild GST-p38WT protein and at the final concentrations indicated in the Figure was assayed. The upper panels represent the obtained phosphorylation (32 P) and the lower panels show, by anti-p38N WB, the amount of recombinant protein used in the assays. […]
# Heparin (150 nM) was included as a specific GRK2 inhibitor. […] Subsequently, the gel was dried and the radioactivity incorporated to the proteins (^32P) was detected. […]
# GST-ATF2 = test: phosphorylation of GST-ATF2 by MKK6CAM-activated p38; assay type: biochemical; settings: with MKK6CAM, 2 μg GST-ATF2
# Procedure: as §1, §2
# [1] = biological target: T2, GST-280-360p38 (last 80 amino acids of …)
# [2] = biological target: T3, GST-p38 (wild type p38α fused to GST, …)
# T4 sequence (P47811 whole entry): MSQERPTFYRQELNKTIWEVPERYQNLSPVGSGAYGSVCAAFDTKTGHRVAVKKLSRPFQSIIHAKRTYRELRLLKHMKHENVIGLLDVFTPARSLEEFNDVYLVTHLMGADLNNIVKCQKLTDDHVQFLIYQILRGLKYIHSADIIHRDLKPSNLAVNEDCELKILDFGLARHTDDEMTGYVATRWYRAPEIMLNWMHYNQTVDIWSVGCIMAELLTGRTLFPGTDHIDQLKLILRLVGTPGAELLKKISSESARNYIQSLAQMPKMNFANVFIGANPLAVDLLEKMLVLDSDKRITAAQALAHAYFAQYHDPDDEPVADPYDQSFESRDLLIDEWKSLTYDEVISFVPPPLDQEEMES
molecule,measurement,setting,value
heparin,effect on catalytic activity of p38,p38,does not affect the catalytic activity of p38
B1,phosphorylation by MKK6CAM (32P),MKK6CAM,correctly phosphorylated by MKK6CAM
same,baseline catalytic activity on MEF2A,"GST-MEF2A; absence of the activating kinase MKK6, long exposure",middle ground between p38αWT and p38Tα123D
same,catalytic activity on MEF2A,"GST-MEF2A; with MKK6CAM, 2 μg GST-MEF2A",conserves the ability to phosphorylate this substrate
same,ability to be a GRK2 substrate (32P incorporation),GRK2,none of the two mutant is a GRK2 substrate
same,catalytic activity on GST-ATF2,GST-ATF2,phosphorylate it analogously
B2,phosphorylation by GRK2 (32P incorporation),"GST-Mxi2Δ17, Q16539","With comparable amounts of p38α, Mxi2 and MxiΔ17, the last two were not phosphorylated by GRK2"
same,phosphorylation by GRK2 (32P incorporation),GST-p38T123A,none of the two mutant is a GRK2 substrate
same,phosphorylation by GRK2 (32P incorporation),"GST-Mxi2, Q16539","With comparable amounts of p38α, Mxi2 and MxiΔ17, the last two were not phosphorylated by GRK2"
same,phosphorylation by GRK2 (32P incorporation),[1],"after purifying the fusion protein and testing it against GRK2, no trace whatsoever of phosphorylation was obtained"
same,phosphorylation by GRK2 (32P incorporation),GST-p38T123D,none of the two mutant is a GRK2 substrate
same,Km of p38 phosphorylation by GRK2,[2],the value of the Km=80 nM
same,Michaelis-Menten constant (Km) of GST-p38 phosphorylation by GRK2,[2],Km=79.56 nM
